Where only a bound is given, the exact number is not on record here.

This is an account of results in patent US20150355184A1 (Merck Sharp & Dohme, published 2015).

Test [1] deals with T1, human PD-L1 expressed on cells (hPD-L1-CHOK1 / human PD-L1-CHO transfectants, LOX melanoma cells, human … (human, UniProt Q9NZQ7 19-290)).
T1 construct: Cell surface PD-L1 on transfected CHO cells, on LOX melanoma cells or in FFPE tissue and cell pellets; also called human Programmed Death Ligand 1; mature PD-L1
T1 sequence (Q9NZQ7 19-290 limits assumed): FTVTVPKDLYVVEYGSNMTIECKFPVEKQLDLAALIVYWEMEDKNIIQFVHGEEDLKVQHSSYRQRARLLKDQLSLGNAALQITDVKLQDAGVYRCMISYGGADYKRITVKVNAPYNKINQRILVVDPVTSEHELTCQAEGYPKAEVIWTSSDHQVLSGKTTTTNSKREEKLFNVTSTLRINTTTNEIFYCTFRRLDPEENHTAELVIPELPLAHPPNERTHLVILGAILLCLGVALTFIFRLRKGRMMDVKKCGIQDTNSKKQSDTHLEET
Description: flow cytometry on hPD-L1 positive LOX melanoma cells, 1 microgram/ml antibody, against isotype control mouse antibody. The source says:
Another experiment assessed the binding specificity of 20C3 and 22C3 for hPD-L1-expressing cells. HT144 cells which were known to be negative for expression of hPD-L1 by mRNA analysis (qPCR) and LOX melanoma cells known to express high levels of hPD-L1 mRNA (qPCR) were stained with 1 microgram/ml of purified mouse IgG from seven hybridomas generated in the experiments described in Example 1 above. An irrelevant isotype control mouse antibody was also used at the identical concentration. A fluorescent-labeled anti-mouse secondary antibody was used to detect the primary mouse antibodies. After staining and repeated washing, the cells were analyzed by flow cytometry, with median fluorescent intensities calculated for the population (>10,000 events collected).
20C3 and 22C3 as well as other hPD-L1 antibodies were employed as flow cytometric reagents to detect cell surface hPD-L1. The significant right shift of both the 20C3 and 22C3 histogram curves (FIG. 6A) as compared to the isotype control antibody curve reflects selective detection of hPD-L1 on the hPD-L1-positive LOX melanoma cell line.
In general terms: Flow cytometry measures light scatter and fluorescence of single cells or particles in a stream.

In another test the target is T2, mouse PD-L1 (mouse, UniProt Q9EP73 19-238, limits assumed).
T2 construct: Tested in 'a similar ELISA experiment'
T2 sequence (Q9EP73 19-238 limits assumed): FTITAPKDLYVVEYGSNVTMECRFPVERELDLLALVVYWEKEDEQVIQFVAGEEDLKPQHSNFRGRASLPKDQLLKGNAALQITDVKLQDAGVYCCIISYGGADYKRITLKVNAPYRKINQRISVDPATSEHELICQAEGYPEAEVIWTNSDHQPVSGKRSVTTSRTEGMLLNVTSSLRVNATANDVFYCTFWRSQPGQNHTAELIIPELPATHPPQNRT
Description: ELISA similar to the cell-based ELISA.

B1: Monoclonal Antibody MEB037.20C3 (antibody, mouse IgG1, V domains shown)
VH: QVQVQQSGAELAEPGASVKMSCKASGYIFTSYWMHWLKQRPGQGLEWIGYINPSSDYNEYSEKFMDKATLTADKASTTAYMQLISLTSEDSAVYYCARSGWLVHGDYYFDYWGQGTTLTVSS
VL: DIVMSQSPSSLAVSAGEKVTMSCKSSQSLLNSRTRKNYLAWYQQKPGQSPKLLIYWASTRESGVPDRFTGSGSGTDFTLTISSVQAEDLAVYYCQQSYDVVTFGAGTKLELK
notes: Mouse IgG1 from hybridoma; also called antibody 20C3; antibody produced by hybridoma subclone MEB037.20C3.116
On to B1, for which, in test [1], the “fold increase in MFI compared to isotype” value was at least 10 fold. In the test with mouse PD-L1, the binding result was “no binding”.

B2: Monoclonal Antibody MEB037.22C3 (antibody, V domains shown)
VH: QVHLQQSGAELAKPGASVKMSCKASGYTFTSYWIHWIKQRPGQGLEWIGYINPSSGYHEYNQKFIDKATLTADRSSSTAYMHLTSLTSEDSAVYYCARSGWLIHGDYYFDFWGQGTTLTVSS
VL: DIVMSQSPSSLAVSAGEKVTMTCKSSQSLLHTSTRKNYLAWYQQKPGQSPKLLIYWASTRESGVPDRFTGSGSGTDFTLTISSVQAEDLAVYYCKQSYDVVTFGAGTKLELK
modifications: N-terminal residue of the mature heavy chain is either glutamine or pyro-glutamate (pE)
notes: Mouse IgG1 from hybridoma (allotype S414R of a mouse IgG1); also called antibody 22C3; antibody produced by hybridoma subclone MEB037.22C3.138
For B2, in test [1], the “fold increase in MFI compared to isotype” value was at least 10 fold. Moreover, the binding result with mouse PD-L1 is “no binding”.
